Source: patent US20250250357A1 (NANJING ZAIMING PHARMACEUTICAL, published 2025)
Read-outs that look alike come from different tables or passages of the source.

T1: monkey MSLN on HEK293T-monkey MSLN recombinant cells (monkey)
T1 construct: Full-length precursor as transfected; processing on the cell is not described; also called HEK293-monkey MSLN
T1 chain: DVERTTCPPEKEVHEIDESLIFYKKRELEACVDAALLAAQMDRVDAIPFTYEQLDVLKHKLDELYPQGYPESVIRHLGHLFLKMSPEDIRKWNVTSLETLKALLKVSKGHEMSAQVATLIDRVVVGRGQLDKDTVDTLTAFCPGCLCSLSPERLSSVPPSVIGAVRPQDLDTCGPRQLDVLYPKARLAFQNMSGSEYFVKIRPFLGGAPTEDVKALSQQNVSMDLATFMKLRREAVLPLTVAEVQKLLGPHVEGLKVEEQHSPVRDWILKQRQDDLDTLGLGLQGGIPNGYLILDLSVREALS


Legend:
[1] = molecular target: T1, monkey MSLN on HEK293T-monkey MSLN …; test: FACS, HEK293T-monkey MSLN cells
[2] = molecular target: T2, human MSLN-R3 on HEK293T-hMSLN-R3 recombinant cells (human, UniProt Q13421 487-606); test: FACS, HEK293T-hMSLN-R3 cells
T2 construct: the C-terminal limit is uncertain; also called human MSLN-R3 membrane protein
T2 sequence (Q13421 495-614): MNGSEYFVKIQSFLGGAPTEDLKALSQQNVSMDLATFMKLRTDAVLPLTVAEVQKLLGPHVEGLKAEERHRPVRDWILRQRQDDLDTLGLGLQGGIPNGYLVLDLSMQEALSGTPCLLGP

[3] = molecular target: T3, human MSLN on OVCAR3 tumor cells (human, UniProt Q13421 296-598); test: FACS, OVCAR3 cells
T3 construct: whole, on cells; also called human MSLN protein
T3 sequence (Q13421 other isoform, or with tags, fused parts or gaps): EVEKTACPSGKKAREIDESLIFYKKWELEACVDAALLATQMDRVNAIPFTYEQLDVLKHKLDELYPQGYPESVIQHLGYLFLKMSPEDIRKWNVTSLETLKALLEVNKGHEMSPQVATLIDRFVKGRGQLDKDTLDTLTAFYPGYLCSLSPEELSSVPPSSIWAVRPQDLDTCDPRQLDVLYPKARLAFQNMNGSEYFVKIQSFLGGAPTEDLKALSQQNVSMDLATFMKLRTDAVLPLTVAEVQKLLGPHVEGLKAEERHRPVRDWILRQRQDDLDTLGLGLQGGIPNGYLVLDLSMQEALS

[4] = molecular target: T4, human MSLN-hFc recombinant protein (human, UniProt Q13421 296-580); test: SPR (Biacore 8K), MSLN-hFc captured, antibody injected
T4 construct: Captured by an anti-human IgG antibody on the chip; also called human MSLN protein; Acro MSN-H5253
T4 sequence (Q13421 other isoform, or with tags, fused parts or gaps): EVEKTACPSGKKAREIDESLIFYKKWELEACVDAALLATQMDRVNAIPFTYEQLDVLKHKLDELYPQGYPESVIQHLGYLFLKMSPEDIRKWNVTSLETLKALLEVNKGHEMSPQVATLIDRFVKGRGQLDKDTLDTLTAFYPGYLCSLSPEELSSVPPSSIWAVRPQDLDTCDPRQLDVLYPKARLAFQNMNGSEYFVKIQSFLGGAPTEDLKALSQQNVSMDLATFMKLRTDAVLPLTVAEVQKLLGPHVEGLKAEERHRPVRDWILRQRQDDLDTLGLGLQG

[5] = molecular target: T2, human MSLN-R3 on HEK293T-hMSLN-R3 …; test: FACS, HEK293T-hMSLN-R3 cells; remark: listed apart in the source
[6] = molecular target: T3, human MSLN on OVCAR3 tumor cells; test: FACS, OVCAR3 cells; remark: listed apart in the source
[7] = molecular target: T1, monkey MSLN on HEK293T-monkey MSLN …; test: FACS, HEK293T-monkey MSLN cells

Binder	EC50 [1] [nM]	Maximum_MFI [1] [MFI]	EC50 [2] [nM]	Maximum_MFI [2] [MFI]	EC50 [3] [nM]	Maximum_MFI [3] [MFI]	Kd [4] [nM]	koff [4] [s⁻¹]	kon [4] [M⁻¹ s⁻¹]	EC50 [5] [nM]	Maximum_MFI [5] [MFI]	EC50 [6] [nM]	Maximum_MFI [6] [MFI]	EC50 [7] [nM]	Maximum_MFI [7] [MFI]
F2.39.3-H5 (scFv, not shown: small tags and cut ends, also called S009-F2.39.3 humanized antibody VH2 + VL1) scFv: EVQLVQSGAEVKKPGASVKVSCKASGYTFTNYWMHWVRQAPGQGLEWMGNINPSSGDSYYNERFMSRVTMTVDKSTSTAYMELSSLRSEDTAVYYCARSGGLWLAFWGQGTLVTVSSGGGGSGGGGSGGGGSDIVMTQSPDSLAVSLGERATINCKSSQTLLNSVSQNNYLAWYQQKPGQSPKLLIYFASTRESGVPDRFSGSGSGTDFTLTISSLQAEDVAVYYCQQHYRTPYTFGGGTKVEIK	5.64	22500	4.65	5650	6.37	3140	–	–	–	–	–	–	–	–	–
F7.33.24-H2 (scFv, not shown: small tags and cut ends, also called S009-F7.33.24 humanized antibody VH1 + VL2) scFv: EVQLVQSGAEVKKPGASVKVSCKASGYTFTSYWMHWVRQAPGQRLEWMGNVNPSNGGSNYNEKFKNRVTITVDKSASTAYMELSSLRSEDTAVYYCAPHYIGSRPGFAYWGQGTLVTVSSGGGGSGGGGSGGGGSDIVMTQTPLSLSVTPGQPASISCKASQNVGTNIAWYLQKPGQSPQALIYSASYRYSGVPDRFSGSGSGTDFTLKISRVEAEDVGVYYCQQYNSYPLTFGGGTKVEIK	–	–	–	–	–	–	1.83	0.000466	254000	1.21	1520	2.07	2190	5.11	8170
F2.23.12-H1 (scFv, not shown: small tags and cut ends, also called S009-F2.23.12 humanized antibody VH1 + VL1) scFv: EVQLVQSGAEVKKPGASVKVSCKASGYTFTNYWMHWVRQAPGQGLEWMGNINPSNGGPYYNERFRSRVTMTVDKSTSTVYMELSSLRSEDTAVYYCARPYYGSSYGYFDYWGQGTTVTVSSGGGGSGGGGSGGGGSDIQMTQSPSSLSASVGDRVTITCKASQDINKYIAWYQQKPGKAPKLLIHYTSELQPGVPSRFSGSGSGTDFTFTISSLQPEDIATYYCLQYANPLRTFGGGTKVEIK	6.72	16000	4.7	4720	9.56	3250	–	–	–	–	–	–	–	–	–
F2.23.12-H8 (scFv, not shown: small tags and cut ends, also called S009-F2.23.12 humanized antibody VH2 + VL4) scFv: EVQLVQSGAEVKKPGASVKVSCKASGYTFTNYWMHWVRQAPGQGLEWMGNINPSNGGPYYNERFRSRVTMTVDKSTSTAYMELSSLRSEDTAVYYCARPYYGSSYGYFDYWGQGTTVTVSSGGGGSGGGGSGGGGSDIQMTQSPSSLSASVGDRVTITCKASQDINKYIAWYQHKPGKAPKLLIHYTSELQPGVPSRFSGSGSGRDYTFTISSLQPEDIATYYCLQYANPLRTFGGGTKVEIK	5.22	14700	5.57	4590	14.5	3040	–	–	–	–	–	–	–	–	–
F2.23.12-H4 (scFv, not shown: small tags and cut ends, also called S009-F2.23.12 humanized antibody VH1 + VL4) scFv: EVQLVQSGAEVKKPGASVKVSCKASGYTFTNYWMHWVRQAPGQGLEWMGNINPSNGGPYYNERFRSRVTMTVDKSTSTVYMELSSLRSEDTAVYYCARPYYGSSYGYFDYWGQGTTVTVSSGGGGSGGGGSGGGGSDIQMTQSPSSLSASVGDRVTITCKASQDINKYIAWYQHKPGKAPKLLIHYTSELQPGVPSRFSGSGSGRDYTFTISSLQPEDIATYYCLQYANPLRTFGGGTKVEIK	2.5	14500	2.67	4760	9.9	3630	–	–	–	–	–	–	–	–	–
F2.23.12-H16 (scFv, not shown: small tags and cut ends, also called S009-F2.23.12 humanized antibody VH4 + VL4) scFv: EVQLVQSGAEVKKPGASVKVSCKASGYTFTNYWMHWVRQAPGQGLEWMGNINPSQGGPYYNERFRSRVTMTVDKSTSTAYMELSSLRSEDTAVYYCARPYYGSSYGYFDYWGQGTTVTVSSGGGGSGGGGSGGGGSDIQMTQSPSSLSASVGDRVTITCKASQDINKYIAWYQHKPGKAPKLLIHYTSELQPGVPSRFSGSGSGRDYTFTISSLQPEDIATYYCLQYANPLRTFGGGTKVEIK	12.3	16100	9.39	4010	80.4	2920	–	–	–	–	–	–	–	–	–

The remaining lines, values ahead:

EC50 [1] [nM]	Maximum_MFI [1] [MFI]	EC50 [2] [nM]	Maximum_MFI [2] [MFI]	EC50 [3] [nM]	Maximum_MFI [3] [MFI]	Kd [4] [nM]	koff [4] [s⁻¹]	kon [4] [M⁻¹ s⁻¹]	EC50 [5] [nM]	Maximum_MFI [5] [MFI]	EC50 [6] [nM]	Maximum_MFI [6] [MFI]	EC50 [7] [nM]	Maximum_MFI [7] [MFI]	Binder
5.31	24400	4.91	5820	11	4000	–	–	–	–	–	–	–	–	–	F2.39.3-H1 (scFv, not shown: small tags and cut ends, also called S009-F2.39.3 humanized antibody VH1 + VL1) scFv: EVQLVQSGAEVKKPGASVKVSCKASGYTFTNYWMHWVRQAPGQGLEWMGNINPSSGDSYYNERFMSRVTMTVDKSTSTVYMELSSLRSEDTAVYYCARSGGLWLAFWGQGTLVTVSSGGGGSGGGGSGGGGSDIVMTQSPDSLAVSLGERATINCKSSQTLLNSVSQNNYLAWYQQKPGQSPKLLIYFASTRESGVPDRFSGSGSGTDFTLTISSLQAEDVAVYYCQQHYRTPYTFGGGTKVEIK
8.9	24100	6.26	5780	40.3	4160	–	–	–	–	–	–	–	–	–	F2.39.3-H6 (scFv, not shown: small tags and cut ends, also called S009-F2.39.3 humanized antibody VH2 + VL2) scFv: EVQLVQSGAEVKKPGASVKVSCKASGYTFTNYWMHWVRQAPGQGLEWMGNINPSSGDSYYNERFMSRVTMTVDKSTSTAYMELSSLRSEDTAVYYCARSGGLWLAFWGQGTLVTVSSGGGGSGGGGSGGGGSDIVMTQSPDSLAVSLGERATINCKSSQTLLNSVSQNNYLAWYQQKPGQSPTLLIYFASTRESGVPDRFSGSGSGTDFTLTISSLQAEDVAVYYCQQHYRTPYTFGGGTKVEIK
–	–	–	–	–	–	1.32	0.000529	402000	1.52	1400	1.8	2250	4.6	8000	F7.33.24-H8 (scFv, not shown: small tags and cut ends, also called S009-F7.33.24 humanized antibody VH2 + VL2) scFv: EVQLVQSGAEVKKPGASVKVSCKASGYTFTSYWMHWVRQAPGQGLEWMGNVNPSNGGSNYNEKFKNRVTITVDKSASTAYMELSSLRSEDTAVYYCAPHYIGSRPGFAYWGQGTLVTVSSGGGGSGGGGSGGGGSDIVMTQTPLSLSVTPGQPASISCKASQNVGTNIAWYLQKPGQSPQALIYSASYRYSGVPDRFSGSGSGTDFTLKISRVEAEDVGVYYCQQYNSYPLTFGGGTKVEIK
–	–	–	–	–	–	–	–	–	0.42	1590	2.25	2130	1.46	8580	F7.33.24-H11 (scFv, not shown: small tags and cut ends, also called S009-F7.33.24 humanized antibody VH2a + VL2) scFv: EVQLVQSGAEVKKPGASVKVSCKASGYTFTSYWMHWVRQAPGQGLEWMGNVNPSNAGSNYNEKFKNRVTITVDKSASTAYMELSSLRSEDTAVYYCAPHYIGSRPGFAYWGQGTLVTVSSGGGGSGGGGSGGGGSDIVMTQTPLSLSVTPGQPASISCKASQNVGTNIAWYLQKPGQSPQALIYSASYRYSGVPDRFSGSGSGTDFTLKISRVEAEDVGVYYCQQYNSYPLTFGGGTKVEIK
–	–	–	–	–	–	–	–	–	1.29	1470	2.6	2190	4.08	8080	F7.33.24-H9 (scFv, not shown: small tags and cut ends, also called S009-F7.33.24 humanized antibody VH2 + VL3) scFv: EVQLVQSGAEVKKPGASVKVSCKASGYTFTSYWMHWVRQAPGQGLEWMGNVNPSNGGSNYNEKFKNRVTITVDKSASTAYMELSSLRSEDTAVYYCAPHYIGSRPGFAYWGQGTLVTVSSGGGGSGGGGSGGGGSDIVMTQTPLSLSVTPGQPASISCKASQNVGTNIAWYQQKPGQSPQALIYSASYRYSGVPDRFSGSGSGTDFTLKISRVEAEDVGVYYCQQYNSYPLTFGGGTKVEIK
–	–	–	–	–	–	1.06	0.000435	409000	1.35	1470	2.78	2420	4.98	8430	F7.33.24-H5 (scFv, not shown: small tags and cut ends, also called S009-F7.33.24 humanized antibody VH1a + VL2) scFv: EVQLVQSGAEVKKPGASVKVSCKASGYTFTSYWMHWVRQAPGQRLEWMGNVNPSSGGSNYNEKFKNRVTITVDKSASTAYMELSSLRSEDTAVYYCAPHYIGSRPGFAYWGQGTLVTVSSGGGGSGGGGSGGGGSDIVMTQTPLSLSVTPGQPASISCKASQNVGTNIAWYLQKPGQSPQALIYSASYRYSGVPDRFSGSGSGTDFTLKISRVEAEDVGVYYCQQYNSYPLTFGGGTKVEIK
–	–	–	–	–	–	–	–	–	1.27	1330	0.92	2200	5.07	7940	F7.33.24-H12 (scFv, not shown: small tags and cut ends, also called S009-F7.33.24 humanized antibody VH2a + VL3) scFv: EVQLVQSGAEVKKPGASVKVSCKASGYTFTSYWMHWVRQAPGQGLEWMGNVNPSNAGSNYNEKFKNRVTITVDKSASTAYMELSSLRSEDTAVYYCAPHYIGSRPGFAYWGQGTLVTVSSGGGGSGGGGSGGGGSDIVMTQTPLSLSVTPGQPASISCKASQNVGTNIAWYQQKPGQSPQALIYSASYRYSGVPDRFSGSGSGTDFTLKISRVEAEDVGVYYCQQYNSYPLTFGGGTKVEIK
12.8	26000	6.91	5600	18.6	4120	–	–	–	–	–	–	–	–	–	F2.39.3-H8 (scFv, not shown: small tags and cut ends, also called S009-F2.39.3 humanized antibody VH2 + VL4) scFv: EVQLVQSGAEVKKPGASVKVSCKASGYTFTNYWMHWVRQAPGQGLEWMGNINPSSGDSYYNERFMSRVTMTVDKSTSTAYMELSSLRSEDTAVYYCARSGGLWLAFWGQGTLVTVSSGGGGSGGGGSGGGGSDIVMTQTPLSLSVTPGQPASISCKSSQTLLNSVSQNNYLAWYQQKPGQSPTLLVYFASTRESGVPDRFSGSGSGTDFTLKISRVEAEDVGVYYCQQHYRTPYTFGGGTKVEIK
